This is an account of results in article PMC10456876.

Where two headings read alike, the source gives them in different places.

Assay [1] deals with human telomeric nucleosome core particle (teloNCP) (human) (UniProt P68431). The assay is described as follows: cryo-EM structure; TRF1core-teloNCP complex from the glycerol gradient, cross-linked with 0.5 mM BS3; 2:1 complex at 2.7 Å, 4:1 complex at 6.7 Å (rigid-body docking).
Assay [2] shares this target. The description is as above. The source holds these as a separate data set.
The target of assay [3] is human telomeric nucleosome core particle (teloNCP), P68431;P62805;P04908;P06899. The assay is described as follows: EMSA. As to conditions: point at 200 nM TRF1core; triplicate; parent: est. 100; read off a plot. In general terms: In EMSA bound probe runs differently from free probe, usually more slowly.

wild-type MBP-tagged TRF1core (TRF1-TIN2-TPP1), sequence (Q9BSI4 whole entry, looked up): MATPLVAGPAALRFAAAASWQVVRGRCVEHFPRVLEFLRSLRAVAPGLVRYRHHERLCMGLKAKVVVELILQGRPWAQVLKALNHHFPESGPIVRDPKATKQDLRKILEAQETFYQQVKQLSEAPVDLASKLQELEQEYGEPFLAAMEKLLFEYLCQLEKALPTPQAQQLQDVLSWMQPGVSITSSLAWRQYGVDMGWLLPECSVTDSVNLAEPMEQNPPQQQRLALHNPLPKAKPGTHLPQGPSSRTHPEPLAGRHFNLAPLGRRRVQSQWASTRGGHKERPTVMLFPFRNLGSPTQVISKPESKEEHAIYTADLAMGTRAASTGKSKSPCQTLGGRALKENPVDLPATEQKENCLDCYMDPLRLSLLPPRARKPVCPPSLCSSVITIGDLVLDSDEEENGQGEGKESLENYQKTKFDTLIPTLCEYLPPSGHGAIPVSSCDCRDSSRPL
wild-type MBP-tagged TRF1core (TRF1-TIN2-TPP1), sequence (P54274 whole entry, looked up, stated change not applied): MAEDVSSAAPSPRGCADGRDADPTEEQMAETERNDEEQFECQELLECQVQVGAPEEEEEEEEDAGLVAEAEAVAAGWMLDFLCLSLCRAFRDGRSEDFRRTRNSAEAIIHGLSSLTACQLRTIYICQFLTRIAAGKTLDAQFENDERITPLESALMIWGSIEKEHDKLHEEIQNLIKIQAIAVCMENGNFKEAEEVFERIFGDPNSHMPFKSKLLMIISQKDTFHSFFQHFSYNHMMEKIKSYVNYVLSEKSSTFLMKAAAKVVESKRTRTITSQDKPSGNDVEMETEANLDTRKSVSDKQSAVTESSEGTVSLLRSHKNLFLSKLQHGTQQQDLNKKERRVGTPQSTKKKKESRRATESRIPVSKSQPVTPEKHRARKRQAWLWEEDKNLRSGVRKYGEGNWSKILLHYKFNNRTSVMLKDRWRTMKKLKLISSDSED

“shelterin TRF1-TIN2-TPP1 subcomplex (TRF1core), untagged (from UniProt P54274 1-439; Q9BSI4 1-451)”: the TRF1 Myb domains bound per teloNCP turned out to be 4 in assay [1] and 2 in assay [2].
As to “wild-type MBP-tagged TRF1core (TRF1-TIN2-TPP1) (from UniProt P54274;Q9BSI4) S434A; S435A; S437A”, in assay [3], the response was determined as 17 % Bound.
